Data reported in PMC5692476, “Effects of Periplasmic Chaperones and Membrane Thickness on BamA-Catalyzed Outer-Membrane Protein Folding” (Journal of Molecular Biology, 2017).
“And” between values parts separate entries of the source, which are not always exact repeats. Equal values may be shown once.

Columns and labels:
OmpC (Escherichia coli) = OmpC (Escherichia coli) (UniProt P06996); assay: FRET; conditions: cited from earlier work
[1] = molecular target: T1, SurA (Escherichia coli), P0ABZ6; assay: native MS; nano-ESI; proteins alone or pre-mixed 1:1; tOmpA diluted from 8 M urea into Skp or SurA (all 1 μM final, 0.2 M urea, 50 mM glycine–NaOH pH 9.5), 5 min at room temperature, then buffer exchange into 200 mM ammonium acetate pH 10; conditions: remark: other sources report otherwise
T1 chain: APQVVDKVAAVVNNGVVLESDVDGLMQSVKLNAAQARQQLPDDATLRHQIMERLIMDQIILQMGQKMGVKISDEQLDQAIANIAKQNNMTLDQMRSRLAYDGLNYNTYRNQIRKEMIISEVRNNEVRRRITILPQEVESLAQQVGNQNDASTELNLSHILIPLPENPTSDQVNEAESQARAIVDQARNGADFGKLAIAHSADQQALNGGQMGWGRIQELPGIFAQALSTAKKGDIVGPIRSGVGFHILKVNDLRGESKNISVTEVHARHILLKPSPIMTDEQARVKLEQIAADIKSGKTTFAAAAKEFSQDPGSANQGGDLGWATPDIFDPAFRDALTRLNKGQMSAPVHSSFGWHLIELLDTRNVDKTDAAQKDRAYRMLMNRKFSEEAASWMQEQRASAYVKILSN

[2] = molecular target: Cys-tOmpA labeled with Alexa Fluor 488 (E. coli); assay: MST; 100 nM Alexa Fluor 488-labeled Cys-tOmpA, SurA 100 μM–3 nM, 0.25 M urea, 50 mM glycine–NaOH pH 9.5; Monolith NT.115; fit to the Hill equation; apparent
[3] = molecular target: T2, transmembrane domain of OmpA (tOmpA) (E. coli, UniProt P0A910 22-192); assay: native MS; nano-ESI; proteins alone or pre-mixed 1:1; tOmpA diluted from 8 M urea into Skp or SurA (all 1 μM final, 0.2 M urea, 50 mM glycine–NaOH pH 9.5), 5 min at room temperature, then buffer exchange into 200 mM ammonium acetate pH 10; conditions: both partners purified
T2 construct: 171-residue transmembrane (beta-barrel) domain of OmpA; Diluted from a denatured state in 8 M urea into the chaperone solution; PDB 1QJP, used for the simulations, is the same domain with mutated residues
T2 sequence (looked up): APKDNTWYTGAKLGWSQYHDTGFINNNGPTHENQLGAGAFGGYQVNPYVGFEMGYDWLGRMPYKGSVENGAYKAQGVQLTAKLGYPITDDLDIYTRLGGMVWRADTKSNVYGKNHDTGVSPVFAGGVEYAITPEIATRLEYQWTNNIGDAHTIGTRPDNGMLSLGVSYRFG

Chain of OmpC (Escherichia coli) (P06996 22-367): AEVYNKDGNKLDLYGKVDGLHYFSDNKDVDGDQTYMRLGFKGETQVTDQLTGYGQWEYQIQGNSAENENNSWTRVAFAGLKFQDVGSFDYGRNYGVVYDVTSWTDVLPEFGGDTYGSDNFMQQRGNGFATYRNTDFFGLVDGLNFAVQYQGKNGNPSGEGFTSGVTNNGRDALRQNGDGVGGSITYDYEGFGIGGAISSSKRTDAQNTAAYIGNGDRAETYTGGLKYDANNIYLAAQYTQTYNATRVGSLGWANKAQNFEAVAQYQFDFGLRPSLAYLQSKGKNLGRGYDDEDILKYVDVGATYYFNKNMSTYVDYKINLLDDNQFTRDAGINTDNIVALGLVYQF

SurA (from UniProt P0ABZ6)
Kd (OmpC (Escherichia coli)): 106 nM

B1: SurA (natural protein, Escherichia coli, UniProt P0ABZ6 21-428, looked up)
chain: T1 chain
notes: SurA, periplasmic chaperone of Escherichia coli; Probably the mature protein without its signal peptide (surmised); also called Escherichia coli periplasmic chaperone SurA
stoichiometry N [1]: 2
Kd [2]: 1800 nM
stoichiometry N [3]: 1 and 2

B2: Skp (natural protein, Escherichia coli, UniProt P0AEU7 21-161, looked up)
chain: ADKIAIVNMGSLFQQVAQKTGVSNTLENEFKGRASELQRMETDLQAKMKKLQSMKAGSDRTKLEKDVMAQRQTFAQKAQAFEQDRARRSNEERGKLVTRIQTAVKSVANSQDIDLVVDANAVAYNSSDVKDITADVLKQVK
notes: Skp, periplasmic chaperone of Escherichia coli; Probably the mature protein without its signal peptide (surmised); also called Escherichia coli periplasmic chaperone Skp
stoichiometry N [3]: 1
